This series can be described thus: soluble fraction after stress (log2 fold change); higher = more stays soluble; pooled small domains, quantitative proteomics. The settings on record: stress: pH 4. In short, it runs like this: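 How much of each domain stays soluble after acid stress, expressed as a fold change, is used to gauge aggregation propensity. Pooled custom libraries of small domains underwent pH 4 stress before high-throughput quantitative proteomics. A higher log2 value means more of the domain stayed soluble.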
On to “HMDEYTAVDSRLDLELAMKRLKPEEAEVLRLVFDYGLPQRAIAERLGVSQMSVSRMQRRAIGKLKRWLSDN”, for which the “soluble fraction (log2)” value was -0.678.

As to “HMDFKKKIIESWADIAETLRGLTVDSNISDWTTKQKNAYETLADKAELAGLSIADLNSILVELGYM”, the “soluble fraction (log2)” value was -0.378.

“HMDFNDPTMEKSLVELPAMSNSTLRDLSENNIKKLEELAEMSVGELMDIASKISESDASALIMEARKPWF”: the “soluble fraction (log2)” value is -0.741.

In the case of “HMDFRVGVWVELVQQRRSVRTQLTWVSPQHTLFLFTAKDGSTQSMTLRMRDKLLAEGNLRIVAPPSR”, the “soluble fraction (log2)” value came out at 0.22.

As for “HMDFSENEPVTVRVLSILKNNTIRIAVKGAVLQAQTALSQDIREGAFLLMRVHITDNTVVLTPY”, the “soluble fraction (log2)” value is -0.193.

On to “HMDFSNVNFSQVSDSELDLLMRRASAQGYTQFDLLKIARAQGLTQAEIEKLDKRFKSAETVAYVAENA”, for which the “soluble fraction (log2)” value is 0.0811.

As for “HMDFTHFTLKQDGKFAGSSNLLHQAVIAAARLAAETGKPVTVMAHVRGGGTRKAVFNPDGTNDKIWN”, the “soluble fraction (log2)” value is -0.0338.

Take “HMDGAPVTVIKNGEVDVATTMRVGLSASELMFKLRAAGVDEVQIVHRAVLEQNGQLTIIKYGEE”: the “soluble fraction (log2)” value is -1.2.

As for “HMDGASVQRITELTATLNRYRHEYYNLAKPSVSDAVYDRLFDELAALEQKTGIVLSNSPTQTV”, the “soluble fraction (log2)” value is -0.759.

Consider “HMDGFVFVMPIKETRMFSVNDERPLVGIVKYSNGEFEKEQLIGFRPNSEYEFIIEGQRLYRVPVNSITIK”, for which the “soluble fraction (log2)” value was -1.25.

“HMDGIRLYPGLMIEHKNFGRGQVVSVNRERGTFTAFFGKNGTRTLTIQILKTDTVRPLASQKAGK”: the “soluble fraction (log2)” value was -0.405.

In the case of “HMDGKPSLIISNGQINYKEMVKLRYSLEDLLFQLRQNSIKSIEEVEYAFLESNGKLSIFPYNFL”, the “soluble fraction (log2)” value is -1.65.

As to “HMDGLGLGAVILAQRKRQGWTQEDLAARIGVSKGAVSKWETGQSYPDLPLVPRLAALFHITVDELLDYR”, the “soluble fraction (log2)” value was 0.263.

Turning to “HMDGLIRLNKLLATLGVESRRHAEEMIIAGRITVDGVTATEKGQKVRRGAVIKVDGVEVGPPP”, the “soluble fraction (log2)” value is 0.0501.

Take “HMDGQPQLLIKNGQLLVSTALKNGMSANDLMFRLRTEGITDIRYVKRAVLEQNGQLTITQVGDD”: the “soluble fraction (log2)” value was -0.0398.

As to “HMDGVTEYTVKSGDSFSAIINKHYNVNYDEKLMQAVAAYNNIEDMNKLQLGQIIKLPPKEQLNL”, the “soluble fraction (log2)” value was -0.118.

For “HMDGYVPAERIASEVGVSARTITREMHGLEMTLMPYGIALLRRTGAGFMLAGTAKALADLRKHMTEDADTQ”, the “soluble fraction (log2)” value was 0.167.

As to “HMDHAHWEEHEVKLLLTLAIQEKEKFNWNQFGLTREGWRNIYPHFPQYSRKQINNKFDFLKQKYRAWKDS”, the “soluble fraction (log2)” value was -1.09.

On to “HMDHAVINSEEVTIKDLSEKIGVSAAEIIKALFTEGIIKTINDKIEYEYAQYVAGMFGVELTLKL”, for which the “soluble fraction (log2)” value was 0.188.

As to “HMDIANEQEQIFITAMRNDDFNPILELKMKGYQPSKNVLKSLQPDVSSTTFIAAAKIFQMEGVL”, the “soluble fraction (log2)” value was -1.31.

Regarding “HMDIASNQIQGIKDSVGGDENYSKMVAWALESLPAEEVKAFNDLTETANAPAIKMAVQGLYSQYNNAM”, the “soluble fraction (log2)” value is -0.9.

As for “HMDIDGVSENGRLILAALDKEALDFDTLAAETGIQESRLRTELTLLEIRKLIMKLPGQRYRLI”, the “soluble fraction (log2)” value stood at 0.28.

For “HMDIDNDIIENILVMGVTKAIAINLSNEFERHRIIANIEYAKEKSKNSEIKNISAFTVEAIRQDYANS”, the “soluble fraction (log2)” value is -1.12.

With “HMDIEITIPPEAKELDVSKILISGNIITDEQEFLDYLKQNNVAAFKDGNYKLNKNMTTEEIVNQIK”, the “soluble fraction (log2)” value is -1.2.

As for “HMDIESREAWVDASGMGVRLDRWLTQLAPEFSRNHLQSLIERGAVRVDGQPALVASRKLRIGQQVAVSLIP”, the “soluble fraction (log2)” value was -0.0568.

“HMDIEVEVPNLVGMSLDEAKSIIQSMGLVVGLTIEDPSAKVSDNSVTKQKPTYQTGVKLRSGDMIDIWYAG”: the “soluble fraction (log2)” value was -0.676.

On to “HMDIFSSFVAIKNANVRELPTAKSAQVATLSKGSEVTALGKVKGKNWYLVARDGKELGYVFGSLIAEAET”, for which the “soluble fraction (log2)” value amounted to 0.143.

For “HMDIINLADNIARLRRRRQITQEELADYLGVTKAAVSKWENRQTMPDILLLPRLAGLFEVTIDELVGY”, the “soluble fraction (log2)” value is -1.72.

Take “HMDIKDRSGVTIDESNEAQQESIIRESWAEQKISGNVDNYIAYLKANGMLLETAKIELAALQEKDASLRE”: the “soluble fraction (log2)” value is -0.78.

With “HMDILEVLIKKDLAMELLEQLTERQRTVVYLRYFYQLNQKEIADYLGISQQRVSEILSRAKAVLTAYTKK”, the “soluble fraction (log2)” value was -0.878.

For “HMDILPEGNYKVNYDVIDEVGNIVANKNDIVVTEKSIKPLNTILGIDLYEVIHSQTGKYFTINGDNLTN”, the “soluble fraction (log2)” value was -0.328.

As for “HMDINLGIGPLVKKYRTIKGYSIRELARNINVTASMLSQIERDIVNPSINTLKAISVELGVPMYKFFM”, the “soluble fraction (log2)” value was -0.217.

On to “HMDINLSENLVRLRHAKKLTQEQLADFLGVTKASVSKWETRQSLPDILLLPRLAAFYGVTVDELIGYEP”, for which the “soluble fraction (log2)” value is at least 0.43.

Consider “HMDISKTLGKNPLLIIDNIEYRGKTLDEITAMTGVKRFENIDIYGSEEAMKTYGEKAKDGVIIAYTT”, for which the “soluble fraction (log2)” value is -0.62.

With “HMDITGIGIKKRIKAIIDSEDKKNPLSDTQIVEILKNEGLEISRRTVAKYRSDLQIPSSSKRKK”, the “soluble fraction (log2)” value came to 0.335.

As to “HMDIVEIYVGEEDGERIDSYLAQELNNVSRSYVQGLIKNQLITVNGNHVKPKHIVKEGEHIIVNIPPPKV”, the “soluble fraction (log2)” value was -0.108.

Turning to “HMDIVENSMPNVVGLELNRAKELMTQLGFTNVRYEPTESSRPENEVVYQSVDKDETLDVSSEIIIQYSSGV”, the “soluble fraction (log2)” value is -0.535.

As to “HMDKEKLQEKLLQIFEAEPQKKFQVQDLVKVLDMEGAGQFKFVVQALADLEHNKQIKLSEDDTFSLIVKE”, the “soluble fraction (log2)” value came to 0.22.

Regarding “HMDKENVLQLQKDLLRLSVNALEKRYYQFSDILLLKYILPLVPKEISIDDQSRLRSLLSGIN”, the “soluble fraction (log2)” value was -0.754.

On to “HMDKEPTHLHTFRLIKEGKSSEEIAEIRNITLGTVNTHLAKLIAVGELTIEQVISKHRLDYVMEAIKNSK”, for which the “soluble fraction (log2)” value is -0.825.

With “HMDKKIVGVNAGKVWQALNEVTEISIVELAEKLNLSVESTALAAGWLAREDQISIERKNGTIELQRKN”, the “soluble fraction (log2)” value is -0.177.

In the case of “HMDKNNLLIIYRTNSEGTPYAFSVTPSAKSLDALHKDAKEMLPFLEKSMNNFFSIQIWERAEYLKY”, the “soluble fraction (log2)” value was -0.379.

Take “HMDKPGMRLNQFIAHSGISSRREADNLIKAGLVQVNGKIIVEMGFRVMPTDIVKFNNETIAS”: the “soluble fraction (log2)” value was 0.378.

With “HMDKPIVFLEDTKAHKSSDLQSPVYMTVPKGTIAFVIAEKGDWSQVYAGRVLDRNLASQWVRRGFS”, the “soluble fraction (log2)” value came out at 0.191.

For the sequence “HMDKSLDFASIKSVEIATGRKFGWHALKKWSKSNSSEIKTIPDPNFGEVKTYHKDAWLAVYNINLSPILD”, the “soluble fraction (log2)” value was -0.0629.

On to “HMDKSPMIGTAEYEGVLYWRQTKDNGATWEWITDKNGDKMPVSGPAPAVGIDKDGYWTVNGESTGVLAKD”, for which the “soluble fraction (log2)” value is -0.0267.

As to “HMDKVSYALGLGIGRQLTDMGAKDLNIDDFAQAIKDVLAGGEVKLSDAEAQTIVRNFFDEQEKKQRA”, the “soluble fraction (log2)” value is -0.637.

As to “HMDLANLQNGQTLPLQRDVEVISIPFGKTISLSEDSVVSIMQAKGSSVSVAYEGRLYLIEGSNLDALGLEP”, the “soluble fraction (log2)” value was -0.888.

Take “HMDLANRSLDRGITILESLARNGASSLADLHRDSGIAKSTIRRLLGTLIQHRLVRRSVADGLYRVTIPLPA”: the “soluble fraction (log2)” value turned out to be 0.025.

As for “HMDLDIQNYNLDEILELFKVSYDFDETELKKAHKMYLMTHPDKSNLNPNIFLFFVQAYDILRKLYEFR”, the “soluble fraction (log2)” value was -1.66.

With “HMDLDIRDDIYRANIPNDYKLQQMQNNIDYDKVLTGYYNNRPEANVIANRTLQLANDVYNRD”, the “soluble fraction (log2)” value was -0.296.

With “HMDLDLNIDNYNFDDLLNLFGLKMKFSEDDLKKAKRSVLMTHPDKSGLDKQYFMFFTKAYKMLSQIYYFR”, the “soluble fraction (log2)” value was -0.779.

On to “HMDLDPNKPAIPIAYPRVLLNIMAEKGFSRTEVLAGSGLADSVFDKPDHRITPAQFLFILMNSFYLS”, for which the “soluble fraction (log2)” value is -0.631.

Turning to “HMDLFLVYQFIRRLATPFTEWKAHELGIIDDKGVQLKKRRDFTTREEKDAYGIFDIMITKLKRLIEKV”, the “soluble fraction (log2)” value was -1.04.

On to “HMDLFSAVVHHIVGQQISTKAQATIWKRMRDEFGVVDAAAVLGAGVEKLQSFGMTFRKAEYITDFARKIE”, for which the “soluble fraction (log2)” value is -0.651.

On to “HMDLGLTDDQRLVYGLLSPTVPRSSGELLGMVDFGRSKLSRILKELIELGQVFTVGVGRGLKYKRG”, for which the “soluble fraction (log2)” value is -0.256.

With “HMDLGTHMRLIVPTGMRVDHIVYESNGKNISVDHDRSISVRWNGEVVSIDVSPLPSRPDFDVLIYMSPK”, the “soluble fraction (log2)” value was -0.162.

In the case of “HMDLLAESLTRREAEVAALAARGLTNRAIAELFGLSVRTAETHLHRAMGKLGANRREDLLLHADRLDPG”, the “soluble fraction (log2)” value was -0.618.

As to “HMDLLESLSAREREVVHLASRGLVNKLIARELGITERTVKAHLSSAFEKLHIKDRVHLALLVNGI”, the “soluble fraction (log2)” value is -0.48.

For “HMDLLKANNLSQINVDKLTDEEILKYSQQLKQSGLTESQAEQIAIARGMPATEIAKLKQRLISLTNMQ”, the “soluble fraction (log2)” value worked out at 0.213.

“HMDLLVWRVADEDAGERIDKLVVDSLDDVSRTAVQQWIKDGLVTVNGKTVKPNYKAAAGDEVAVSVPEPE”: the “soluble fraction (log2)” value is -0.514.

In the case of “HMDLMKKTLTKEMLLIDFMKQQFPDSSTNKLRKMLSSGRVKINNLITHKAKSQLKLGDIFELANKPHD”, the “soluble fraction (log2)” value was found to be 0.124.

As for “HMDLPGIVTETDRQRADLAARIGAAKVEAVLAGGARSVEADEDFDADTRRELHQFLTRMARRAFLEER”, the “soluble fraction (log2)” value is -0.722.

As for “HMDLPSSETLKVKLNLAKAYVTIEDFGAARRALDEVLSVSSLVDPDLTIQAKSLLAEIDQRS”, the “soluble fraction (log2)” value is -0.0976.

In the case of “HMDLQAAWLQTVRHLLAHTEDVGDRFAEEARRIHYGEEPHRGIRGQATPEERLALREEGIETMSIPV”, the “soluble fraction (log2)” value is -0.204.

Take “HMDLQHQLTPRLKRLRLSGILETLEVRNQQAIAEKWSYVEFLTRLAEDEVERRDHKQLTLRLR”: the “soluble fraction (log2)” value is -0.564.

On to “HMDLSYPFTTVTTDNVNMRRSASSSSVVLERIDKGDSITVLGTSGNYYKVSYNDRTGYVLKQYVDVSAATT”, for which the “soluble fraction (log2)” value was -0.0312.

As to “HMDLTPEEQMDLYRLLDSLPTEERTYLILHYFEERSFPEMAEILSMPEAKLKSRFYRILHRLRAHL”, the “soluble fraction (log2)” value is -1.11.

“HMDLTSDANLKEAKDQILNLLNDGKRHHVTEINKILLPPVQVQEALRFLIHEETVRVDASFLF”: the “soluble fraction (log2)” value was -0.083.
